B1: U12 RNA (ssRNA)
RNA: UUUUUUUUUUUU
B2: U15 RNA (ssRNA)
RNA: UUUUUUUUUUUUUUU

Tests used:
[1] = biological target: T1, UPF2S (Homo sapiens, UniProt Q9HAU5 761-1227); experiment: fluorescence anisotropy
[2] = biological target: UPF2-U1BD (Homo sapiens, UniProt Q9HAU5 1105-1227); experiment: fluorescence anisotropy
[3] = biological target: T1, UPF2S; experiment: analytical SEC

T1 sequence (Q9HAU5 761-1227): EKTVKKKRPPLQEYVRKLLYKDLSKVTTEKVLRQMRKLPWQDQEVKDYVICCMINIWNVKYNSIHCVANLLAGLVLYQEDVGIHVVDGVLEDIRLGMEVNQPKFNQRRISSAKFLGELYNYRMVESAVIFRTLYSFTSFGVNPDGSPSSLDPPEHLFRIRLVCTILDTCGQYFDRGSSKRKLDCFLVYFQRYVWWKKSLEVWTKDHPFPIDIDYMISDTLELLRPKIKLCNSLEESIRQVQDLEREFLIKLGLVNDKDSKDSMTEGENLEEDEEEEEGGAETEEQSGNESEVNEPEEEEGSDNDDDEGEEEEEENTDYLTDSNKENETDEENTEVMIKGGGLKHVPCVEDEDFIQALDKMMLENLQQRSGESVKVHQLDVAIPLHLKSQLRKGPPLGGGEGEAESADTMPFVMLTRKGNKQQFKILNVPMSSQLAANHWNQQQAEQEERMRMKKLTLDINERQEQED
UPF2-U1BD, sequence (Q9HAU5 1105-1227): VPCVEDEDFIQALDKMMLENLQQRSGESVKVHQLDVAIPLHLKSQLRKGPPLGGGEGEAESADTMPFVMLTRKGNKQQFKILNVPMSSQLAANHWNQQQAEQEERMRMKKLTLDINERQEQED

Binder	Kd [1]	binding result [2]	binding result [3]
B1	~600 nM	no binding	–
B2	–	–	no binding

Reference: PMC9891255
